# Measurements as given in patent publication US9222947B2, “Anti-sAPPβ antibody” (SHIONOGI & CO., LTD., priority 2012, dated 2015).
# B1: 5H10: mouse monoclonal antibody recognizing the internal structure/C-terminal fragments of sAPPβ; VH SEQ ID NO: 14, VL SEQ ID NO: 15 (antibody, V domains shown)
# VH: QVQLQQSGTELAKPGASVKMSCKASGYTFIDYWMHWIKQSPGQGLEWIGFINPRSGSTTYNQKFRDKATLTVDTSSSTAYMQLTSLTSEDSAVYYCTRPDFDYFDYWGQGTTLTVSS
# VL: DVLMTQTPLSLPVSLGDHASISCRSSQSIVQSNGNTYLEWYLQKPGQSPKLLIYKVSNRFSGVPDRFSGSGSGTDFTLKISSVEAEDLGIYYCFQASHVPLTFGAGTKLELKRA
# modifications: VH of antibody 5H10; VL of antibody 5H10
# Target: sAPPβ (Homo sapiens, UniProt P05067)
# Sequence (P05067 18-671 limits assumed): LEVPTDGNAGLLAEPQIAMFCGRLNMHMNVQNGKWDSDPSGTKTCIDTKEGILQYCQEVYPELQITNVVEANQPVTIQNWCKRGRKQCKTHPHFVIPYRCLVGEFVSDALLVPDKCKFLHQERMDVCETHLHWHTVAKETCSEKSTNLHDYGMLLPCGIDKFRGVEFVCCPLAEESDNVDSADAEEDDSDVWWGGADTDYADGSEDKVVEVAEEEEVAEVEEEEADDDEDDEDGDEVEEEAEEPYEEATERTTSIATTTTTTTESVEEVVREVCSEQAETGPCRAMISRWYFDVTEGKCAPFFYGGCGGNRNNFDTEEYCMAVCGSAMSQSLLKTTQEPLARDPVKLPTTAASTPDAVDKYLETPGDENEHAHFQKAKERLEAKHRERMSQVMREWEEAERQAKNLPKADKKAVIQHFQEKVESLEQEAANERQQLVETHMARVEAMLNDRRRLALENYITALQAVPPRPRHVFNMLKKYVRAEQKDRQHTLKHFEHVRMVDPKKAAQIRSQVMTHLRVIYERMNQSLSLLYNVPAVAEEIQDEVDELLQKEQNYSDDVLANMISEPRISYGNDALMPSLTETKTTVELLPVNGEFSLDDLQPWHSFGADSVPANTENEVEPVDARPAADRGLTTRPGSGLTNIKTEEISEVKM
# Assay: Binding affinity on GLM chip using ProteOn (SPR)
# Details: antibody immobilized, sAPPβ as analyte
# Procedure: Binding affinity of the neoepitope antibody, 4G4 was immobilized on a GLM chip (BIO-RAD) and analyzed using a ProteOn (BIO-RAD). 4 different concentrations of sAPPβ (40, 20, 10, 5 nM) were injected as the analytes. […] Binding affinity of the internal antibody, 5H10 was immobilized on a GLM chip (BIO-RAD) and analyzed using a ProteOn (BIO-RAD). […] concentrations of sAPPβ (1000, 250, 62.5, 15.6, 3.91 nM) were injected as the analytes.
molecule,measurement,value
B1,Kd,0.62 nM
